Changes are numbered by the printed parent chain.

To fix the notation:
B1: CE115HA000/GLS3000 S27eA (antibody, IgG1, name in Kabat numbering, V domains shown)
VH: QVQLVESGGGVVQPGRSLRLSCAASGFTFSNAWMHWVRQAPGKGLEWVAQIKAKSNNYATYYAESVKGRFTISRDDSKNSLYLQMNSLKTEDTAVYYCRYVHYGAYYGVDAWGQGTTVTVSS
VL: DIVMTQSPLSLPVTPGEPASISCRSSQSLVHANRNTYLHWYQQKPGQAPRLLIYKVSNRFSGVPDRFSGSGSGTDFTLKISRVEAEDVGVYYCGQGTQVPYTFGQGTKLEIK
notes: one-arm IgG1
B2: CE115HA000/GLS3000 F55A (antibody, IgG1, name in Kabat numbering, V domains shown)
VH: B1 VH
VL: B1 VL with A32S, F60A
notes: one-arm IgG1
B3: GLS3000 T92Y (antibody, name in Kabat numbering, V domains shown)
VH: B1 VH
VL: B1 VL with A32S, T97Y
notes: one-arm IgG as m2
B4: GLS3000 Y32F (antibody, name in Kabat numbering, V domains shown)
VH: B1 VH
VL: B1 VL with A32S, Y37F
notes: one-arm IgG as m2
B5: GLS3000 V94P (antibody, name in Kabat numbering, V domains shown)
VH: B1 VH
VL: B1 VL with A32S, V99P
notes: one-arm IgG as m2
B6: GLS3000 V51D (antibody, name in Kabat numbering, V domains shown)
VH: B1 VH
VL: B1 VL with A32S, V56D
notes: one-arm IgG as m2
B7: GLS3000 V94N (antibody, name in Kabat numbering, V domains shown)
VH: B1 VH
VL: B1 VL with A32S, V99N
notes: one-arm IgG as m2
B8: GLS3000 V27cY (antibody, name in Kabat numbering, V domains shown)
VH: B1 VH
VL: B1 VL with V30Y, A32S
notes: one-arm IgG as m2
B9: GLS3000 Y96D (antibody, name in Kabat numbering, V domains shown)
VH: B1 VH
VL: B1 VL with A32S, Y101D
notes: one-arm IgG as m2
B10: GLS3000 V94G (antibody, name in Kabat numbering, V domains shown)
VH: B1 VH
VL: B1 VL with A32S, V99G
notes: one-arm IgG as m2
B11: GLS3000 Y32P (antibody, name in Kabat numbering, V domains shown)
VH: B1 VH
VL: B1 VL with A32S, Y37P
notes: one-arm IgG as m2
B12: GLS3000 V94R (antibody, name in Kabat numbering, V domains shown)
VH: B1 VH
VL: B1 VL with A32S, V99R
notes: one-arm IgG as m2
B13: GLS3000 V94H (antibody, name in Kabat numbering, V domains shown)
VH: B1 VH
VL: B1 VL with A32S, V99H
notes: one-arm IgG as m2
B14: GLS3000 V51P (antibody, name in Kabat numbering, V domains shown)
VH: B1 VH
VL: B1 VL with A32S, V56P
notes: one-arm IgG as m2
B15: GLS3000 V94I (antibody, name in Kabat numbering, V domains shown)
VH: B1 VH
VL: B1 VL with A32S, V99I
notes: one-arm IgG as m2
B16: GLS3000 V94D (antibody, name in Kabat numbering, V domains shown)
VH: B1 VH
VL: B1 VL with A32S, V99D
notes: one-arm IgG as m2
B17: GLS3000 V27cE (antibody, name in Kabat numbering, V domains shown)
VH: B1 VH
VL: B1 VL with V30E, A32S
notes: one-arm IgG as m2
B18: GLS3000 V27cI (antibody, name in Kabat numbering, V domains shown)
VH: B1 VH
VL: B1 VL with V30I, A32S
notes: one-arm IgG as m2
B19: GLS3000 V94K (antibody, name in Kabat numbering, V domains shown)
VH: B1 VH
VL: B1 VL with A32S, V99K
notes: one-arm IgG as m2
B20: GLS3000 V27cS (antibody, name in Kabat numbering, V domains shown)
VH: B1 VH
VL: B1 VL with V30S, A32S
notes: one-arm IgG as m2
B21: GLS3000 V51E (antibody, name in Kabat numbering, V domains shown)
VH: B1 VH
VL: B1 VL with A32S, V56E
notes: one-arm IgG as m2
B22: GLS3000 Y96L (antibody, name in Kabat numbering, V domains shown)
VH: B1 VH
VL: B1 VL with A32S, Y101L
notes: one-arm IgG as m2
B23: GLS3000 V94S (antibody, name in Kabat numbering, V domains shown)
VH: B1 VH
VL: B1 VL with A32S, V99S
notes: one-arm IgG as m2
B24: GLS3000 V27cD (antibody, name in Kabat numbering, V domains shown)
VH: B1 VH
VL: B1 VL with V30D, A32S
notes: one-arm IgG as m2
B25: GLS3000 Y32A (antibody, name in Kabat numbering, V domains shown)
VH: B1 VH
VL: B1 VL with A32S, Y37A
notes: one-arm IgG as m2
B26: GLS3000 V27cP (antibody, name in Kabat numbering, V domains shown)
VH: B1 VH
VL: B1 VL with V30P, A32S
notes: one-arm IgG as m2
B27: GLS3000 Y96F (antibody, name in Kabat numbering, V domains shown)
VH: B1 VH
VL: B1 VL with A32S, Y101F
notes: one-arm IgG as m2
B28: GLS3000 T97P (antibody, name in Kabat numbering, V domains shown)
VH: B1 VH
VL: B1 VL with A32S, T102P
notes: one-arm IgG as m2
B29: GLS3000 V51I (antibody, name in Kabat numbering, V domains shown)
VH: B1 VH
VL: B1 VL with A32S, V56I
notes: one-arm IgG as m2
B30: GLS3000 V94Y (antibody, name in Kabat numbering, V domains shown)
VH: B1 VH
VL: B1 VL with A32S, V99Y
notes: one-arm IgG as m2
B31: GLS3000 V94L (antibody, name in Kabat numbering, V domains shown)
VH: B1 VH
VL: B1 VL with A32S, V99L
notes: one-arm IgG as m2
B32: GLS3000 Y96H (antibody, name in Kabat numbering, V domains shown)
VH: B1 VH
VL: B1 VL with A32S, Y101H
notes: one-arm IgG as m2
B33: GLS3000 Y32D (antibody, name in Kabat numbering, V domains shown)
VH: B1 VH
VL: B1 VL with A32S, Y37D
notes: one-arm IgG as m2
B34: GLS3000 V94E (antibody, name in Kabat numbering, V domains shown)
VH: B1 VH
VL: B1 VL with A32S, V99E
notes: one-arm IgG as m2
B35: GLS3000 V94Q (antibody, name in Kabat numbering, V domains shown)
VH: B1 VH
VL: B1 VL with A32S, V99Q
notes: one-arm IgG as m2
B36: GLS3000 V27cL (antibody, name in Kabat numbering, V domains shown)
VH: B1 VH
VL: B1 VL with V30L, A32S
notes: one-arm IgG as m2
B37: GLS3000 V94W (antibody, name in Kabat numbering, V domains shown)
VH: B1 VH
VL: B1 VL with A32S, V99W
notes: one-arm IgG as m2
B38: GLS3000 V94A (antibody, name in Kabat numbering, V domains shown)
VH: B1 VH
VL: B1 VL with A32S, V99A
notes: one-arm IgG as m2
B39: GLS3000 V51G (antibody, name in Kabat numbering, V domains shown)
VH: B1 VH
VL: B1 VL with A32S, V56G
notes: one-arm IgG as m2
B40: GLS3000 V94T (antibody, name in Kabat numbering, V domains shown)
VH: B1 VH
VL: B1 VL with A32S, V99T
notes: one-arm IgG as m2
B41: GLS3000 V94F (antibody, name in Kabat numbering, V domains shown)
VH: B1 VH
VL: B1 VL with A32S, V99F
notes: one-arm IgG as m2
B42: GLS3000 Y96E (antibody, name in Kabat numbering, V domains shown)
VH: B1 VH
VL: B1 VL with A32S, Y101E
notes: one-arm IgG as m2
B43: GLS3000 V94M (antibody, name in Kabat numbering, V domains shown)
VH: B1 VH
VL: B1 VL with A32S, V99M
notes: one-arm IgG as m2

For one test, the target named is T1, CD3 epsilon homodimer protein (UniProt P07766 23-126).
T1 construct: also called CD3 (CD3 epsilon)
Put plainly: SPR, antibody over immobilised CD3e homodimer.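 Also: SPR at 25 °C with CD3 epsilon homodimer amine-coupled to a CM4 sensor chip and antibody flowed over as analyte in HBS-EP+ running buffer.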 In general terms: SPR reads the build-up and loss of mass on a sensor chip optically.
T1 sequence (P07766 23-126): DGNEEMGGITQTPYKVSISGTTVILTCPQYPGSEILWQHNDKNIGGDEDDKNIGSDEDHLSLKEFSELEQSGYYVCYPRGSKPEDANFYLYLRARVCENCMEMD
As for B1, the “KD ratio to GLS3000” value came to 1.01.

For the molecule B2, the “KD ratio to GLS3000” value was found to be 1.16.

In the next test the target is T2, CD3 epsilon homodimer protein (UniProt P07766 23-126).
T2 construct: also called CD3 (CD3 epsilon)
The test can be described thus: SPR Biacore T200, CD3e homodimer on chip, vs unaltered GLS3000 antibody.
T2 sequence (P07766 23-126): as above
Regarding B3, the “ratio of amounts bound (Z=Y/X)” value was 0.33.

On to B4, for which the “ratio of amounts bound (Z=Y/X)” value is 0.29.

Take B5: the “ratio of amounts bound (Z=Y/X)” value turned out to be 1.26.

With B6, the “ratio of amounts bound (Z=Y/X)” value is 0.33.

For B7, the “ratio of amounts bound (Z=Y/X)” value amounted to 1.05.

As for B8, the “ratio of amounts bound (Z=Y/X)” value was 0.77.

As to B9, the “ratio of amounts bound (Z=Y/X)” value is 0.17.

Regarding B10, the “ratio of amounts bound (Z=Y/X)” value turned out to be 0.48.

Take B11: the “ratio of amounts bound (Z=Y/X)” value was determined as 0.24.

For the molecule B12, the “ratio of amounts bound (Z=Y/X)” value turned out to be 0.66.

On to B13, for which the “ratio of amounts bound (Z=Y/X)” value came out at 0.78.

For the molecule B14, the “ratio of amounts bound (Z=Y/X)” value is 0.32.

B15: the “ratio of amounts bound (Z=Y/X)” value was 0.66.

Regarding B16, the “ratio of amounts bound (Z=Y/X)” value came to 0.89.

As to B17, the “ratio of amounts bound (Z=Y/X)” value was 0.61.

With B18, the “ratio of amounts bound (Z=Y/X)” value was 0.96.

In the case of B19, the “ratio of amounts bound (Z=Y/X)” value was found to be 0.57.

For the molecule B20, the “ratio of amounts bound (Z=Y/X)” value was found to be 0.51.

Turning to B21, the “ratio of amounts bound (Z=Y/X)” value is 0.64.

In the case of B22, the “ratio of amounts bound (Z=Y/X)” value came out at 0.32.

As to B23, the “ratio of amounts bound (Z=Y/X)” value was 0.93.

Turning to B24, the “ratio of amounts bound (Z=Y/X)” value is 0.32.

For the molecule B25, the “ratio of amounts bound (Z=Y/X)” value is 0.24.

With B26, the “ratio of amounts bound (Z=Y/X)” value stood at 0.3.

Turning to B27, the “ratio of amounts bound (Z=Y/X)” value amounted to 1.17.

For the molecule B28, the “ratio of amounts bound (Z=Y/X)” value amounted to 0.31.

As for B29, the “ratio of amounts bound (Z=Y/X)” value worked out at 0.81.

With B30, the “ratio of amounts bound (Z=Y/X)” value was found to be 0.63.

For B31, the “ratio of amounts bound (Z=Y/X)” value worked out at 0.44.

For the molecule B32, the “ratio of amounts bound (Z=Y/X)” value turned out to be 0.23.

For the molecule B33, the “ratio of amounts bound (Z=Y/X)” value amounted to 0.23.

As for B34, the “ratio of amounts bound (Z=Y/X)” value stood at 0.5.

As to B35, the “ratio of amounts bound (Z=Y/X)” value came to 0.76.

B36: the “ratio of amounts bound (Z=Y/X)” value was determined as 0.84.

With B37, the “ratio of amounts bound (Z=Y/X)” value was 0.58.

In the case of B38, the “ratio of amounts bound (Z=Y/X)” value is 1.05.

Regarding B39, the “ratio of amounts bound (Z=Y/X)” value was 0.84.

Take B40: the “ratio of amounts bound (Z=Y/X)” value was found to be 0.93.

Consider B41, for which the “ratio of amounts bound (Z=Y/X)” value was determined as 0.71.

Take B42: the “ratio of amounts bound (Z=Y/X)” value was 0.17.

With B43, the “ratio of amounts bound (Z=Y/X)” value was determined as 0.44.

For the origin of these results see patent publication US20210388087A1 (Chugai, published 2021).
